From patent publication US20190382482A1 (GlaxoSmithKline, published 2019)

T1: Human LAG-3 on cells (human, UniProt P18627 23-525)
T1 construct: whole, on cells; also called human LAG-3 expressing EL4 cells
T1 sequence (looked up): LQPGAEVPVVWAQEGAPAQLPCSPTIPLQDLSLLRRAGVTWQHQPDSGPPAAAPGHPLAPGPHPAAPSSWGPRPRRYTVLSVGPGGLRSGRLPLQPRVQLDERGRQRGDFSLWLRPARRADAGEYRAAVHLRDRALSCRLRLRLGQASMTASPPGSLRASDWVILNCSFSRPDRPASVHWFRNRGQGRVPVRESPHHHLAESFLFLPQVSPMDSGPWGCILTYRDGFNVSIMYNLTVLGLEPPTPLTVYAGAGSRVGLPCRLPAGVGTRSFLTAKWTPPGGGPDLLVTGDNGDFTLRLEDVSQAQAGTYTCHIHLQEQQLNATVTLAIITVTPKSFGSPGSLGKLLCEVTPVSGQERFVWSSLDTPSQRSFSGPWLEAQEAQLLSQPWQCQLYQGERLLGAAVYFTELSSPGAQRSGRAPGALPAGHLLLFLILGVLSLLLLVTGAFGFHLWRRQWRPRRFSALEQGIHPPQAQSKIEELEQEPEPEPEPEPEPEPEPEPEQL

T2: Recombinant human LAG-3 ECD-His6 (human, UniProt P18627 23-433)
T2 construct: Entry holds the ECD with the C-terminal His6; also called LAG-3-His; recombinant human LAG-3-His
T2 sequence: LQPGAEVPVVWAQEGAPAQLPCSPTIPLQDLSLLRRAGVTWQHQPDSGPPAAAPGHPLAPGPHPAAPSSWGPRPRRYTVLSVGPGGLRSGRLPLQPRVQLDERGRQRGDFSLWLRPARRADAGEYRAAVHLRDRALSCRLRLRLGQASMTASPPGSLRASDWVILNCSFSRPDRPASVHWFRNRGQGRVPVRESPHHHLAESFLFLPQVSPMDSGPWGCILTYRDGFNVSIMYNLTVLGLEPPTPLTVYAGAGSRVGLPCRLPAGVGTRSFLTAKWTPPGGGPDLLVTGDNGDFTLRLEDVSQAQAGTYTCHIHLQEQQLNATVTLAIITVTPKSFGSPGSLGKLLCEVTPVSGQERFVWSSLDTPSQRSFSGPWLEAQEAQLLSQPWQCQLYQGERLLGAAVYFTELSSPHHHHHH


How the values were obtained:
[1] = target: T1, Human LAG-3 on cells; experiment: Flow cytometry (MFI dose response) on human LAG-3 expressing EL4 cells
Protocol: Human LAG-3 expressing EL4 cells were incubated with either IMP731, H5L7WT or H5L7BW Alexa647-conjugated antibodies at varying concentrations of up to 50 μg/ml for 30 minutes at room temperature. Cells were washed with FACS buffer (PBS+0.5% BSA) to remove unbound antibody.
EL4 cells and CD3⁺ T cells were analysed by FACS using a Beckman Coulter FC 500 flow cytometer. FACS raw data were analysed using CXP Analysis software (Beckman Coulter). The data was initially plotted on a forward-scatter versus side-scatter plot and the population of cells of interest were gated. This gated population was then plotted as a histogram displaying fluorescence intensity and the mean fluorescence intensity (MFI) calculated. MFI values were then plotted in GraphPad Prism 5 software to generate dose response curves.

[2] = target: T2, Recombinant human LAG-3 ECD-His6; experiment: SPR Biacore T100, Anova comparison of KD, 3 runs
Protocol: (§1) Wild type fucosylated and afucosylated antibodies were compared for their ability to bind to recombinant human LAG-3 ECD with a C-terminal His6 (SEQ ID NO:51) using the Biacore™ T100 (GE Healthcare™). Protein A was immobilised on a CM5 chip by primary amine coupling. This surface was then used to capture the humanised antibodies. Recombinant human LAG-3 ECD-His6 was then passed over the captured antibodies at 32, 8, 2, 0.5 and 0.125 nM and regeneration was carried out using 50 mM NaOH. The binding curves were double referenced with buffer injection (i.e. 0 nM) and the data was fitted to the T100 analysis software using the 1:1 model. The run was carried out at 25° C., using HBS-EP as the running buffer.
(§2) In order to investigate the statistical significance of this kinetic data, this experiment was repeated 3 times with the same batch of the four antibodies and the chimeric control. KD, ka and kd parameters were each log (base 10) transformed prior to separate statistical analyses. For each parameter, a mixed model analysis of variance (‘Anova’) was performed on transformed data, including terms for Run (random block effect) and Antibody.

[3] = target: T2, Recombinant human LAG-3 ECD-His6; experiment: SPR Biacore T100, Anova comparison of kd, 3 runs
Protocol: as §1, §2

Row | Binder | EC50 (read off the curve) [1] | KD ratio against H5L7 [2] | kd ratio against H5L7 [3] | KD ratio against IMP731 [2] | fold decrease of KD against IMP731 [2] | fold decrease of kd against IMP731 [3] | kd ratio against IMP731 [3]
1 | IMP731 (antibody, human IgG1, kappa, V domains shown, Chimeric anti-LAG-3 antibody, parent of the humanised variants; also called chimeric IMP731; chimeric control) VH: QVQLKESGPGLVAPSQSLSITCTVSGFSLTAYGVNWVRQPPGKGLEWLGMIWDDGSTDYNSALKSRLSISKDNSKSQVFLKMNSLQTDDTARYYCAREGDVAFDYWGQGTTLTVSS VL: not shown | ~0.01 µg/mL | – | – | – | – | – | –
2 | H5L7BW (antibody, human IgG1, kappa, V domains shown, afucosylated Fc glycan (expressed in BioWa Potelligent FUT8 knock-out CHO cell line), differs only by lack of fucose; also called afucosylated H5L7BW; afucosylated H5L7) VH: QVQLQESGPGLVKPSETLSLTCTVSGFSLTAYGVNWIRQPPGKGLEWIGMIWDDGSTDYDSALKSRVTISVDTSKNQFSLKLSSVTAADTAVYYCAREGDVAFDYWGQGTLVTVSS VL: DIQMTQSPSSLSASVGDRVTITCKSSQSLLNPSNQKNYLAWYQQKPGKAPKLLVYFASTRDSGVPSRFSGSGSGTDFTLTISSLQPEDFATYYCLQHFGTPPTFGQGTKLEIKR | ~0.02 µg/mL | 1.05 | 1.12 | – | – | – | –
3 | H5L7 (antibody, human IgG1, kappa, V domains shown, wild type fucosylated form; also called H5L7WT; fucosylated H5L7) VH: QVQLQESGPGLVKPSETLSLTCTVSGFSLTAYGVNWIRQPPGKGLEWIGMIWDDGSTDYDSALKSRVTISVDTSKNQFSLKLSSVTAADTAVYYCAREGDVAFDYWGQGTLVTVSS VL: DIQMTQSPSSLSASVGDRVTITCKSSQSLLNPSNQKNYLAWYQQKPGKAPKLLVYFASTRDSGVPSRFSGSGSGTDFTLTISSLQPEDFATYYCLQHFGTPPTFGQGTKLEIKR | ~0.02 µg/mL | – | – | 0.0774 | 10 fold | ~10 fold | 0.155
